Measured values as given in patent publication US9279769B2, “Proteins that efficiently generate singlet oxygen” (The Regents of the University of California, priority 2010, dated 2016).
Where “and” joins values, the source holds several entries; their conditions need not be identical. Equal values may be shown once.

System: IFP1.4
Assay: bleaching of fused IFP1.4 in E. coli colonies by blue light
Assay type: cell-based
Description: In phototropin, the excited state energy of FMN is consumed to form a covalent bond with a cysteine. To divert this energy into ^1O2 generation, we carried out saturation mutagenesis of the relevant cysteine (Cys426) of the LOV2 domain of Arabidopsis thaliana phototropin 2 (AtPhot2). To screen for optimal ^1O2 production, these site-specific mutants were fused to an infrared fluorescent protein, IFP1.4, which is readily bleached by ^1O2 [21]. Colonies of E. coli expressing the fusion proteins were imaged in the IFP channel (ex 684/em 708 nm) before and after blue light (488 nm) illumination (FIG. 1A). […] The small side chain of the glycine residue may provide space around the cofactor that would allow O2 close apposition to FMN for efficient energy transfer.
[…] was synthesized by overlap extension PCR [48]. Genetic libraries were constructed by saturation and random mutagenesis and DNA shuffling. Mutants were fused to IFP1.4 by overlap extension PCR and cloned into a modified pBAD vector containing the heme oxygenase-1 gene from cyanobacteria. Libraries were expressed in E. coli strain TOP10 and screened by imaging the agar plates with colonies in the IFP channel before and after blue light illumination. Protein purification and spectroscopic characterization experiments were done as described.

B1: C426G (protein)
chain: MERPRAPPSPLNDAESLSERRSLEIFNPSSGKETHGSTSSSSKPPLDGNNKGSSSKWMEFQDSAKITERTAEWGLSAVKPDSGDDGISFKLSSEVERSKNMSRRSSEESTSSESGAFPRVSQELKTALSTLQQTFVVSDATQPHCPIVYASSGFFTMTGYSSKEIVGRNCRFLQGPDTDKNEVAKIRDCVKNGKSYCGRLLNYKKDGTPFWNLLTVTPIKDDQGNTIKFIGMQVEVSKYTEGVNDKALRPNGLSKSLIRYDARQKEKALDSITEVVQTIRHRKSQVQESVSNDTMVKPDSSTTPTPGRQTRQSDEASKSFRTPGRVSTPTGSKLKSSNNRHEDLLRMEPEELMLSTEVIGQRDSWDLSDRERDIRQGIDLATTLERIEKNFVISDPRLPDNPIIFASDSFLELTEYSREEILGRNGRFLQGPETDQATVQKIRDAIRDQREITVQLINYTKSGKKFWNLFHLQPMRDQKGELQYFIGVQLDGSDHVEPLQNRLSERTEMQSSKLVKATATNVDEAVRELPDANTRPEDLWAAHSKPVYPLPHNKESTSWKAIKKIQASGETVGLHHFKPIKPLGSGDTGSVHLVELKGTGELYAMKAMEKTMMLNRNKAHRACIEREIISLLDHPFLPTLYASFQTSTHVCLITDFCPGGELFALLDRQPMKILTEDSARFYAAEVVIGLEYLHCLGIVYRDLKPENILLKKDGHIVLADFDLSFMTTCTPQLIIPAAPSKRRRSKSQPLPTFVAEPSTQSNSFVGTEEYIAPEIITGAGHTSAIDWWALGILLYEMLYGRTPFRGKNRQKTFANILHKDLTFPSSIPVSLVGRQLINTLLNRDPSSRLGSKGGANEIKQHAFFRGINWPLIRGMSPPPLDAPLSIIEKDPNAKDIKWEDDGVLVNSTDLDIDLF
modifications: miniSOG polypeptide
decrease of IFP fluorescence (blue light (488 nm) illumination): −70%
IFP1.4 brightness before irradiation (two colonies, fusion to IFP1.4): 100 and 96
IFP1.4 brightness after irradiation (two colonies, irradiation at 480/30 nm): 27 and 28
